The nature of the series: protein stability index of a GFP-peptide fusion (GPS, HEK-293T) (PSI 1-6); higher = more stable.
The mark [1] stands for this setting: treatment: DMSO, c terminus: a fixed tail appended.
Where [2] appears, read: treatment: MLN4924 1 uM, 8 h, c terminus: a fixed tail appended.

± gives the standard deviation.
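Also: 24-mer peptide tiles fused after GFP, lentivirally expressed, FACS-sorted into six equal bins by GFP/DsRed ratio, decoded by Illumina sequencing, PSI is the read-weighted mean bin number.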

Turning to VDSLESHIPSQEVPGTQVGQGGKL [ZNF263], the protein stability index was 5.33 ± 0.2 under setting [1] and 5.16 ± 0.22 under setting [2]. For LREIAFTRQLHEKTSQLSYYYMGF [ATE1] the same measures were 2.31 ± 0.35 and 2.34 ± 0.24.

For RLKKQLRAAQLQHSEKMAQYLEEE [CCDC6], the protein stability index runs as follows: under setting [1], 4.06 ± 0.29; under setting [2], 4.11 ± 0.26. For PLFSNWWIQVTSLRIFVWLLLLYF [PHTF1], the protein stability index reads like this: under setting [1], 2.21 ± 0.22; under setting [2], 2.5 ± 0.49. For EKLKEKLKMKEREEAWVKIENLAK [PPP2R5C] the same measures were 2.54 ± 0.6 and 2.48 ± 0.39. In the same order, the values of GSNRSGSDRRKEKDPKAGDSKSGG [DVL3] are 5.63 ± 0.21 and 5.47 ± 0.23. The sequence NQKLFDLRGKFKRPPLRRVRMSAD [TNNI2] showed a protein stability index under setting [1] of 3.17 ± 0.21 and a protein stability index under setting [2] of 3.51 ± 0.26. In the same order, the values of LHVAAHYGRDSFVRLLLEFKAEVD [ASB7] are 2.15 ± 0.14 and 2.15 ± 0.37. In the same order, the values of ISCVICNDIMAYMFGFFFGRTPLI [CDS2] are 3.31 ± 0.35 and 2.92 ± 0.48. For the sequence KLKDLSTVTSLQVPVLKPMDLMVE [PPP2R2C], the protein stability index runs as follows: under setting [1], 3.33 ± 0.31; under setting [2], 3.43 ± 0.27. For LAKQPGVSVNAQTLDGRTPLHLAA [RIPK4] the same measures were 3.99 ± 0.76 and 4.02 ± 0.087.

In the case of ARLVFVPLLLLCNIKPRRYLTVVF [SLC29A1], the protein stability index by setting is: under setting [1], 2.92 ± 0.51; under setting [2], 2.91 ± 0.87. Consider GRSWPSAPDDSKAQAHRIHIDPEI [PDLIM4], for which the protein stability index under setting [1] is 4.22 ± 0.33 and the protein stability index under setting [2] turned out to be 4.31 ± 0.07.

In the case of QNINAPAPATTSSWEVVRNPLIAS [C22orf31], the protein stability index is, setting by setting: under setting [1], 3.65 ± 0.32; under setting [2], 3.7 ± 0.16. In the same order, the values of LVDMDMADYSAALDPAYTTLEFEN [HNF4A] are 4.24 ± 0.19 and 4.35 ± 0.054. Regarding HGRARIARLMLESEYRSDIINAKS [ASB7], the protein stability index under setting [1] turned out to be 3.05 ± 0.3 and the protein stability index under setting [2] is 3.18 ± 0.23.

On to NYIGTKNVIETCKEAGVQKLILTS [NSDHL], for which the protein stability index under setting [1] came out at 2.5 ± 0.23 and the protein stability index under setting [2] came to 2.84 ± 0.44. In the same order, the values of NTLVCNGLQNCVYPWDENHCKEKR [NETO1] are 4.21 ± 0.25 and 4.26 ± 0.3. For IRLKESINCQLSDPSSTKPGTLLK [TRIM14] the same measures were 3.28 ± 0.3 and 3.48 ± 0.33.

Consider VAVKKKLQLYFWKDREFHELQGDF [VPS39], for which the protein stability index under setting [1] was determined as 2.12 ± 0.3 and the protein stability index under setting [2] worked out at 2.06 ± 0.58.

In the case of VASYILASHNGISYKDLDVIFGVE [TENT5D], the protein stability index reads like this: under setting [1], 2.93 ± 0.85; under setting [2], 2.89 ± 1.4. In the same order, the values of IDGVATTRYSVAGLSPYSDYEFRV [PTPRD] are 2.02 ± 0.24 and 2.02 ± 0.29. Regarding PQTPAAPPATLGEGSADTEDRKLP [EHMT1], the protein stability index reads like this: under setting [1], 5.44 ± 0.28; under setting [2], 5.36 ± 0.35. In the same order, the values of SFVDKLLDLMPRLMTSKPAEVVKI [INTS4] are 2.73 ± 0.64 and 2.61 ± 0.63. For LPYQHFSAHFTSGPLVPRLAGMAN [TBX5] the same measures were 2.7 ± 0.27 and 2.56 ± 0.11. For DYRMELAQAGTPAPTKPHDYRQEQ [SPAG8] the same measures were 5.11 ± 0.088 and 5.16 ± 0.14. For SGGQTSWDSGCLAPPSTRTSHSLP [PLEKHN1], the protein stability index came out at 4.1 ± 0.068 under setting [1] and 3.98 ± 0.21 under setting [2]. In the same order, the values of FVWYTPPTFMIAVFLPIVVLIFKS [STEAP1] are 3.33 ± 1.6 and 2.81 ± 1.2. For YVIVSGAQRKEERWDMADNEQVLT [YJU2B], the protein stability index is, setting by setting: under setting [1], 2.88 ± 0.37; under setting [2], 3.19 ± 0.24. On to FRQYCGAACTCHVRNPLSACSIM [RNF208], for which the protein stability index was found to be 2.09 ± 0.19 (treatment: DMSO, c terminus: native) and 2.18 ± 0.2 (treatment: MLN4924 1 uM, 8 h, c terminus: native). Regarding GCALTTFSVLEGEKNNHRAKDLRA [SOAT1], the protein stability index reads like this: under setting [1], 3.49 ± 0.52; under setting [2], 3.83 ± 0.63.

On to SVNICGMNEHPVCSRTWTNRLCHQ [SPAG8], for which the protein stability index is, setting by setting: under setting [1], 2.29 ± 0.26; under setting [2], 2.36 ± 0.14. In the same order, the values of ESYFTTRTYGEPESAGPSRAVRQS [EMD] are 4.62 ± 0.26 and 4.57 ± 0.18. In the same order, the values of SAETGSPRLTMHYPCLEKPRIWSL [IRX6] are 2.4 ± 0.1 and 2.22 ± 0.43.

SEMKKCSDYESIEVPDSYTGPRLS [PPEF2]: the protein stability index is, setting by setting: under setting [1], 4.58 ± 0.35; under setting [2], 4.53 ± 0.11. For VKLWKVSERDKRPEGYNLKDEEGR [PPP2R2B], the protein stability index amounted to 4.07 ± 0.5 under setting [1] and 4.336 ± 0.038 under setting [2]. For EEQATKQFLEEINKWTVQYNVSPL [PTPN9] the same measures were 2.96 ± 0.54 and 3.15 ± 0.43. In the same order, the values of DLFKSFPGPMDWVPRYTGVAPQDQ [ADAMTS4] are 3.19 ± 0.29 and 3.21 ± 0.2. For CTLETTVHASGWNKILVPLVLLRQ [BCL2L13] the same measures were 2.61 ± 0.38 and 2.38 ± 0.43. Turning to KFAGSFYFAITVITTIGYGHAAPG [KCNK9], the protein stability index runs as follows: under setting [1], 3.42 ± 0.31; under setting [2], 3.27 ± 0.17. For PDLRSLFSRAGISEAQLTDAETSK [WAS] the same measures were 5.03 ± 0.28 and 5 ± 0.27.

Regarding GGARSLWRGNGINVLKIAPESAIK [SLC25A25], the protein stability index was 3.29 ± 0.45 under setting [1] and 3.19 ± 0.47 under setting [2]. In the case of LLAQARDEAQGACLQQKQVVAEAQ [LRRC45], the protein stability index is, setting by setting: under setting [1], 4.847 ± 0.003; under setting [2], 4.9 ± 0.087. For QIGFSVGLGNIWRFPYLCQKNGGG [SLC6A17] the same measures were 2.02 ± 0.37 and 1.9 ± 0.33.

Regarding DPDPDPEPAGGSRPGPAVPGLRAL [CMTM3], the protein stability index is, setting by setting: under setting [1], 4.92 ± 0.28; under setting [2], 4.68 ± 0.11.

With LLGTSGLKRRFSRLENRYEALAKQ [DAPK3], the protein stability index is 3.04 ± 0.31 under setting [1] and 3.06 ± 0.27 under setting [2]. Consider ESQLDPSNCLGIRDFAETHNCVDL [KLHL12], for which the protein stability index was 3.9 ± 0.45 under setting [1] and 4.26 ± 0.49 under setting [2].

As to FLHSLVQFLFIYQLPFCGPNVIDN [OR4A15], the protein stability index was found to be 2.89 ± 0.32 under setting [1] and 3.48 ± 0.26 under setting [2].

SSEEFEDKWFRKIKDHFCPFENQF [C8orf76] yielded a protein stability index under setting [1] of 2.87 ± 0.19 and a protein stability index under setting [2] of 2.74 ± 0.5. In the same order, the values of MMELGSRSRGASQKKQKLEQKAAG [FATE1] are 4.76 ± 0.19 and 4.87 ± 0.49.

With EEGDEQQRLLNTPRRKKLKSTSKY [GMCL1], the protein stability index was 4.75 ± 0.12 under setting [1] and 4.9 ± 0.39 under setting [2]. For CRYLNFTKGEEISVYVKLAGERED [MIA2] the same measures were 2.52 ± 0.26 and 2.77 ± 0.22. In the same order, the values of KGGEERKAEGGEEDSLGCLTADTK [IRX6] are 5.44 ± 0.25 and 5.52 ± 0.16. For AKGASLFTCDLQHTETGEEVLRMC [VPS39] the same measures were 3.69 ± 0.055 and 3.73 ± 0.33. In the case of TPAMSSSSSSRVLLRQQLMRAQAQ [TFE3], the protein stability index under setting [1] stood at 3.65 ± 0.26 and the protein stability index under setting [2] is 3.66 ± 0.42.

For FKEVKEKFKGWVSYSTSEQAELSY [DLC1], the protein stability index reads like this: under setting [1], 3.13 ± 0.27; under setting [2], 2.87 ± 0.31. In the same order, the values of LDLLSELYQKQPKIGYHLLYYLRA [INTS3] are 3.21 ± 0.65 and 2.74 ± 0.53. In the same order, the values of SELERESKVVVPPLPGKAFLRQLP [SNX3] are 3.67 ± 0.18 and 3.86 ± 0.59. In the same order, the values of EISVDSLDFSKKILHTAWHPSENI [PPP2R2B] are 2.28 ± 0.26 and 2.41 ± 0.21. APHQQPPAPPSDALLDLHFPSDHL [TFE3]: the protein stability index by setting is: under setting [1], 4.65 ± 0.087; under setting [2], 4.77 ± 0.057. In the same order, the values of APVAEAWIPQAGPPELNYGATGEC [ZNF449] are 4.78 ± 0.12 and 4.88 ± 0.33. For DHEHEEADLELSLPECLEYEEEFD [GNAS] the same measures were 5.55 ± 0.46 and 5.53 ± 0.22. For PLRADHMVKEPVEDTDPSTLSFNM [EDARADD] the same measures were 5.1 ± 0.083 and 4.86 ± 0.46. The sequence QPLRPWAGGDVPHKTHQAPASASS [DYRK1B] gave a protein stability index under setting [1] of 4.54 ± 0.17 and a protein stability index under setting [2] of 4.58 ± 0.26.

As to EEKADVLARGPLNQTALHLAAAHG [RIPK4], the protein stability index under setting [1] was 4.5 ± 0.17. As to FQDAIFPDTQENRRMFSSLFQFSN [CCDC3], the protein stability index is, setting by setting: under setting [1], 2.38 ± 0.43; under setting [2], 2.58 ± 0.37. In the case of TPSFSGDSSSSCSDHCITSSDMMD [VDR], the protein stability index is, setting by setting: under setting [1], 5.11 ± 0.28; under setting [2], 5.11 ± 0.12. Turning to FRQFGYQDSPGPREAVSQLRELCR [ZNF24], the protein stability index reads like this: under setting [1], 3.37 ± 0.17; under setting [2], 3.38 ± 0.15. In the same order, the values of GSEAAVIPLDLGCTQVTQDGDIPN [FAM189A2] are 5.05 ± 0.39 and 5.26 ± 0.5. In the same order, the values of EDLTPEDDMPIGRNVLELNDVRQS [PTPRD] are 5.13 ± 0.3 and 5.19 ± 0.14. With TSFLQHPWDESGSGCLPPEPLFEA [FOXJ1], the protein stability index amounted to 3.56 ± 0.22 under setting [1] and 3.62 ± 0.35 under setting [2]. In the same order, the values of YIQSRADTMQNIESTIVELGSIFQ [STX5] are 2.33 ± 0.2 and 2.62 ± 0.29.

(Values after the supplement of paper PMC10567573.)
